Assay results taken from PMC6398935 (The Biochemical journal, 2016).

B1: murine anti-fHbp monoclonal antibody 12C1 (IgG2b) (antibody, V domains shown)
VH: QVQLQESGPELVKPGASVKISCKASGYSFSDYNMSWVKQSNGKSLEWIGIIDPKYGTINYNQKFKGKATLTVDQASSTAYMQLNSLTSEDSAVYYCVRDYYGSSYFDYWGQGTTLTVSS
VL: DIVLTQSPSSIYASLGERVTLTCKASQDIHNYLNWFQQKPGKSPKTLIYRANRLVDGVPSRFSGGGSGQDYSLTISSLEFEDIGIYYCLQYDEFPPTFGGGTRLEIK
notes: also called mAb 12C1

Target: murine anti-fHbp monoclonal antibody JAR5 (IgG2b) (mouse)
Assay: SPR
Conditions: not given

Chain of murine anti-fHbp monoclonal antibody JAR5 (IgG2b) (mouse) (heavy, as listed by the source, chain 1 of 2, other chains not shown): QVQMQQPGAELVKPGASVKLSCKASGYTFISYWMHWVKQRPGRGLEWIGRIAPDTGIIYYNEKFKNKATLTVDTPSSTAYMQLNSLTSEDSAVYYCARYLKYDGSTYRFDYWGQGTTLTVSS

Point of comparison: “fHbp variant 1.1 Lys122Ala mutant (natural protein)”, Kd 17 nM. Against it:
- fHbp variant 1.1 Asp85Ala mutant (natural protein) — within 1.5-fold, 20 nM
- fHbp variant 1.1 Gln87Ala mutant (natural protein) — 10-fold lower, 1.7 nM
- fHbp variant 1.1 Gln115Ala mutant (natural protein) — within 1.5-fold, 23 nM
- fHbp variant 1.1 Gly121Ala mutant (natural protein) — within 1.5-fold, 20 nM
- fHbp variant 1.1 Lys122Ser mutant (natural protein) — within 1.5-fold, 13 nM

Target: T1, factor H binding protein (fHbp) variant 1.1, wild type (Neisseria meningitidis serogroup B …, UniProt Q9JXV4)
T1 construct: source: E. coli BL21(DE3), purified
Assay: SPR; fHbp covalently immobilised by amine coupling on a CM5 chip (~500 RU); mAbs at 100 nM in HBS-EP injected one after the other (first mAb to saturation, then the second), both orders; 25 °C
Conditions: both partners purified

B1: binds.
